Laboratory results: US9260500B2, “Peptide and use thereof” (Takeda Pharmaceutical Company Limited, priority 2009, dated 2016)
Non-standard residues stand in square brackets, D forms with d. *: point of attachment. Phe(2,6-Me2) = Cc1cccc(C)c1C[C@H](N)C(=O)O; carbamoylmethylcarbamoyl = NC(=O)CNC(=O)*; 2Nal = N[C@@H](Cc1ccc2ccccc2c1)C(=O)O; tBuAla = CC(C)(C)C[C@H](N)C(=O)O; 4Pal = N[C@@H](Cc1ccncc1)C(=O)O; dHyp = O=C(O)[C@H]1C[C@H](O)CN1; Cha = N[C@@H](CC1CCCCC1)C(=O)O; dIva = CC[C@@](C)(N)C(=O)O; Iva = CC[C@](C)(N)C(=O)O; Aib = CC(C)(N)C(=O)O; Glycolyl = O=C(CO)*

Key:
[1] = molecular target: T1, human Y2 receptor (Homo sapiens, UniProt P49146); experiment: Receptor Binding Assay (RBA) for Human Y2, [125I]-PYY displacement on hY2R/CHO membrane fraction; conditions: IC50 of test compound/IC50 of PYY(3-36) (PYY(3-36) taken as 1)
T1 construct: expressed in transfected cells; membrane fraction
T1 sequence (P49146 1-381): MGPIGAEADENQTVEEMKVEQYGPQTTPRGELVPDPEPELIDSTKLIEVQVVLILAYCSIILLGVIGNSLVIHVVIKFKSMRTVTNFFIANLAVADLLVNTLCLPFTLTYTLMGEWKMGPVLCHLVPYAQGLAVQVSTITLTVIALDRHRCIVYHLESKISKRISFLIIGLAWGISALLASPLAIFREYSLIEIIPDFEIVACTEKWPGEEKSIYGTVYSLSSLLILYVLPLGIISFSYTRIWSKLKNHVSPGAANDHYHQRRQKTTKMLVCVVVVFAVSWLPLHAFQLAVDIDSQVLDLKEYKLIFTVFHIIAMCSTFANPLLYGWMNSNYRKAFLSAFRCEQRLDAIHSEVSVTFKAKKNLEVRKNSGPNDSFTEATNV
In short: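 Read-out is [125I]-PYY displacement from membranes of CHO/dhfr− cells stably transfected with human Y2R. Membranes were obtained by disrupting cells in a buffer of 10 mM NaHCO3, 5 mM EDTA and protease inhibitors.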

[2] = molecular target: T1, human Y2 receptor; experiment: Human Y2 Receptor G Protein Binding Assay (GBA), [35S]GTPγS; type: biochemical; conditions: EC50 of test compound/EC50 of PYY(3-36) (PYY3-36 taken as 1), hY2R/CHO membrane fraction
In short: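 Agonism measured as [35S]GTPγS binding, read by GF/C filtration and scintillation counting after 120 min at room temperature, using human Y2 membranes at 1 μg protein/mL in pH 7.4 Tris/MgCl2/NaCl/GDP buffer. Compound serially diluted 100 μM–1 nM; EC50 normalized to PYY(3-36) (ratio = compound/PYY).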

[3] = tested on: male C57EL/6J mice; experiment: 3-Days Continuous Subcutaneous Administration Test-1 (food intake suppressing activity); type: in vivo, mouse; conditions: 0.03 mg/kg/day, subcutaneous Alzet pump, food consumption over 3 days; relative to food intake suppression rate for PYY(3-36) (1 mg/kg/day) taken as 100%
In short: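 Male […] mice, 12-13 weeks, received compound at 0.03 mg/kg/day by subcutaneous osmotic pump (50% DMSO vehicle), housed singly with free food access. Food consumed over 3 days measured; suppression expressed relative to PYY(3-36) (1 mg/kg/day) set as 100%.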

RBA IC50 Ratio [1]	GBA EC50 Ratio [2]	Substance	food intake suppression rate (%) [3] [%]
6.1	2.8	Ac-[Glu23, D-Pro24, Iva25, Pya(4)26, Cha27,36, Aib28,31, Lys30]-PYY(23-36) (Ac-E[dP][Iva][4Pal][Cha][Aib]NK[Aib]TRQR[Cha]-NH2; SMILES CC[C@](C)(NC(=O)[C@H]1CCCN1C(=O)[C@H](CCC(=O)O)NC(C)=O)C(=O)N[C@@H](Cc1ccncc1)C(=O)N[C@@H](CC1CCCCC1)C(=O)NC(C)(C)C(=O)N[C@@H](CC(N)=O)C(=O)N[C@@H](CCCCN)C(=O)NC(C)(C)C(=O)N[C@H](C(=O)N[C@@H](CCCNC(=N)N)C(=O)N[C@@H](CCC(N)=O)C(=O)N[C@@H](CCCNC(=N)N)C(=O)N[C@@H](CC1CCCCC1)C(N)=O)[C@@H](C)O) [compound No. 322]	31
0.48	0.86	Ac-[Glu23, D-Pro24, Pya(4)26, Cha27,36, Leu(Me)28, Lys30, Aib31]-PYY(23-36) (Ac-E[dP]R[4Pal][Cha][tBuAla]NK[Aib]TRQR[Cha]-NH2; SMILES CC(=O)N[C@@H](CCC(=O)O)C(=O)N1CCC[C@@H]1C(=O)N[C@@H](CCCNC(=N)N)C(=O)N[C@@H](Cc1ccncc1)C(=O)N[C@@H](CC1CCCCC1)C(=O)N[C@@H](CC(C)(C)C)C(=O)N[C@@H](CC(N)=O)C(=O)N[C@@H](CCCCN)C(=O)NC(C)(C)C(=O)N[C@H](C(=O)N[C@@H](CCCNC(=N)N)C(=O)N[C@@H](CCC(N)=O)C(=O)N[C@@H](CCCNC(=N)N)C(=O)N[C@@H](CC1CCCCC1)C(N)=O)[C@@H](C)O) [compound No. 169]	55
0.58	0.91	Ac-[Iva24, Pya(4)26, Cha27,36, Aib28,31, Lys30]-PYY(23-36) (Ac-S[Iva]R[4Pal][Cha][Aib]NK[Aib]TRQR[Cha]-NH2; SMILES CC[C@](C)(NC(=O)[C@H](CO)NC(C)=O)C(=O)N[C@@H](CCCNC(=N)N)C(=O)N[C@@H](Cc1ccncc1)C(=O)N[C@@H](CC1CCCCC1)C(=O)NC(C)(C)C(=O)N[C@@H](CC(N)=O)C(=O)N[C@@H](CCCCN)C(=O)NC(C)(C)C(=O)N[C@H](C(=O)N[C@@H](CCCNC(=N)N)C(=O)N[C@@H](CCC(N)=O)C(=O)N[C@@H](CCCNC(=N)N)C(=O)N[C@@H](CC1CCCCC1)C(N)=O)[C@@H](C)O) [compound No. 241]	16

The remaining lines, values behind:

Substance	RBA IC50 Ratio [1]	GBA EC50 Ratio [2]	food intake suppression rate (%) [3] [%]
Ac-[D-Pro24, Pya(4)26, Cha27,36, Iva28, Lys30, D-Iva31]-PYY(23-36) (Ac-S[dP]R[4Pal][Cha][Iva]NK[dIva]TRQR[Cha]-NH2; SMILES CC[C@@](C)(NC(=O)[C@H](CCCCN)NC(=O)[C@H](CC(N)=O)NC(=O)[C@](C)(CC)NC(=O)[C@H](CC1CCCCC1)NC(=O)[C@H](Cc1ccncc1)NC(=O)[C@H](CCCNC(=N)N)NC(=O)[C@H]1CCCN1C(=O)[C@H](CO)NC(C)=O)C(=O)N[C@H](C(=O)N[C@@H](CCCNC(=N)N)C(=O)N[C@@H](CCC(N)=O)C(=O)N[C@@H](CCCNC(=N)N)C(=O)N[C@@H](CC1CCCCC1)C(N)=O)[C@@H](C)O) [compound No. 249]	0.36	0.67	39
Ac-[D-Pro24, Pya(4)26, Cha27, Aib28,31, Lys30, Phe(2,6-Me2)36]-PYY(23-36) (Ac-S[dP]R[4Pal][Cha][Aib]NK[Aib]TRQR[Phe(2,6-Me2)]-NH2; SMILES CC(=O)N[C@@H](CO)C(=O)N1CCC[C@@H]1C(=O)N[C@@H](CCCNC(=N)N)C(=O)N[C@@H](Cc1ccncc1)C(=O)N[C@@H](CC1CCCCC1)C(=O)NC(C)(C)C(=O)N[C@@H](CC(N)=O)C(=O)N[C@@H](CCCCN)C(=O)NC(C)(C)C(=O)N[C@H](C(=O)N[C@@H](CCCNC(=N)N)C(=O)N[C@@H](CCC(N)=O)C(=O)N[C@@H](CCCNC(=N)N)C(=O)N[C@@H](Cc1c(C)cccc1C)C(N)=O)[C@@H](C)O) [compound No. 329]	0.52	0.59	51
Ac-[D-Pro24, Pya(4)26, Nal(2)27, Aib28,31, Lys30, Cha36]-PYY(23-36) (Ac-S[dP]R[4Pal][2Nal][Aib]NK[Aib]TRQR[Cha]-NH2; SMILES CC(=O)N[C@@H](CO)C(=O)N1CCC[C@@H]1C(=O)N[C@@H](CCCNC(=N)N)C(=O)N[C@@H](Cc1ccncc1)C(=O)N[C@@H](Cc1ccc2ccccc2c1)C(=O)NC(C)(C)C(=O)N[C@@H](CC(N)=O)C(=O)N[C@@H](CCCCN)C(=O)NC(C)(C)C(=O)N[C@H](C(=O)N[C@@H](CCCNC(=N)N)C(=O)N[C@@H](CCC(N)=O)C(=O)N[C@@H](CCCNC(=N)N)C(=O)N[C@@H](CC1CCCCC1)C(N)=O)[C@@H](C)O) [compound No. 307]	7.2	4.0	22
Ac-[Glu23, D-Hyp24, Cha27,28,36, Lys30, Aib31]-PYY(23-36) (Ac-E[dHyp]RH[Cha][Cha]NK[Aib]TRQR[Cha]-NH2; SMILES CC(=O)N[C@@H](CCC(=O)O)C(=O)N1C[C@@H](O)C[C@@H]1C(=O)N[C@@H](CCCNC(=N)N)C(=O)N[C@@H](Cc1c[nH]cn1)C(=O)N[C@@H](CC1CCCCC1)C(=O)N[C@@H](CC1CCCCC1)C(=O)N[C@@H](CC(N)=O)C(=O)N[C@@H](CCCCN)C(=O)NC(C)(C)C(=O)N[C@H](C(=O)N[C@@H](CCCNC(=N)N)C(=O)N[C@@H](CCC(N)=O)C(=O)N[C@@H](CCCNC(=N)N)C(=O)N[C@@H](CC1CCCCC1)C(N)=O)[C@@H](C)O) [compound No. 204]	0.8	1.3	16
Ac-[Glu23, D-Hyp24, Iva25, Pya(4)26, Cha27,36, Leu(Me)28, Lys30, Aib31]-PYY(23-36) (Ac-E[dHyp][Iva][4Pal][Cha][tBuAla]NK[Aib]TRQR[Cha]-NH2; SMILES CC[C@](C)(NC(=O)[C@H]1C[C@H](O)CN1C(=O)[C@H](CCC(=O)O)NC(C)=O)C(=O)N[C@@H](Cc1ccncc1)C(=O)N[C@@H](CC1CCCCC1)C(=O)N[C@@H](CC(C)(C)C)C(=O)N[C@@H](CC(N)=O)C(=O)N[C@@H](CCCCN)C(=O)NC(C)(C)C(=O)N[C@H](C(=O)N[C@@H](CCCNC(=N)N)C(=O)N[C@@H](CCC(N)=O)C(=O)N[C@@H](CCCNC(=N)N)C(=O)N[C@@H](CC1CCCCC1)C(N)=O)[C@@H](C)O) [compound No. 351]	1.2	1.9	27
Carbamoylmethylcarbamoyl-[D-Pro24, Iva25, Pya(4)26, Cha27,36, Aib28,31, Lys30]-PYY(23-36) (carbamoylmethylcarbamoyl-S[dP][Iva][4Pal][Cha][Aib]NK[Aib]TRQR[Cha]-NH2; SMILES CC[C@](C)(NC(=O)[C@H]1CCCN1C(=O)[C@H](CO)NC(=O)NCC(N)=O)C(=O)N[C@@H](Cc1ccncc1)C(=O)N[C@@H](CC1CCCCC1)C(=O)NC(C)(C)C(=O)N[C@@H](CC(N)=O)C(=O)N[C@@H](CCCCN)C(=O)NC(C)(C)C(=O)N[C@H](C(=O)N[C@@H](CCCNC(=N)N)C(=O)N[C@@H](CCC(N)=O)C(=O)N[C@@H](CCCNC(=N)N)C(=O)N[C@@H](CC1CCCCC1)C(N)=O)[C@@H](C)O) [compound No. 331]	1.7	1.7	35
Glycoloyl-[D-Hyp24, Iva25,28, Pya(4)26, Cha27,36, Leu(Me)28, Lys30, Aib31]-PYY(23-36) (Glycolyl-S[dHyp][Iva][4Pal][Cha][Iva]NK[Aib]TRQR[Cha]-NH2) [compound No. 338]	1.9	2.1	27
